Experimental data: patent publication US20110076347A1 (BEN GURION UNIVERSITY OF THE NEGEV RESEARCH AND DEVELOPMENT …, published 2011)

Columns and labels:
[1] = biological target: human brain inositol monophosphatase (IMPase), in postmortem crude homogenate (human) (UniProt P29218); assay: cell-based or functional assay
[2] = biological target: T1, human recombinant calbindin D28k (human, UniProt P05937 1-261, limits assumed); assay: cell-based or functional assay
T1 sequence (looked up): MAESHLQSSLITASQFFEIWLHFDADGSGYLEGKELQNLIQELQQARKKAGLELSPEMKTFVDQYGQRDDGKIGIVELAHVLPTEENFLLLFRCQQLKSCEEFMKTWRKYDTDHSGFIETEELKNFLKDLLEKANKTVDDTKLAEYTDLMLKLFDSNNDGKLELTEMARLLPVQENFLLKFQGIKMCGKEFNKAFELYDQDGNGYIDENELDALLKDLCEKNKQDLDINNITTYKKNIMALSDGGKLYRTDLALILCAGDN

human brain inositol monophosphatase (IMPase), in postmortem crude homogenate (human), sequence (P29218 whole entry): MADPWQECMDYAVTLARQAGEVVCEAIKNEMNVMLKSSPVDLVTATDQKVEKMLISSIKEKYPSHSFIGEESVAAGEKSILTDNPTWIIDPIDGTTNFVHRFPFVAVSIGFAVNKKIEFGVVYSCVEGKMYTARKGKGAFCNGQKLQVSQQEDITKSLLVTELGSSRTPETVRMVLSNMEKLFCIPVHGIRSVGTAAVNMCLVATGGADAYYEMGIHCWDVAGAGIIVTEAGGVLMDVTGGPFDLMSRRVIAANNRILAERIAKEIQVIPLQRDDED

Row | Molecule | human brain IMPase activity [1] [fold] | % Inhibition of Calbindin Activation [2] [%]
1 | human recombinant calbindin D28k (from UniProt P05937 1-261) | 3 | 
2 | IKEKY [Peptide 9 (Ile-Lys-Glu-Lys-Tyr)] |  | 0
3 | IAAAYP [Peptide 8 (Ile-Ala-Ala-Ala-Tyr-Pro)] |  | 0
4 | SYEHYP [Peptide 5 (Ser-Tyr-Glu-His-Lys-Pro)] |  | 56
5 | IAEAYP [Peptide 6 (Ile-Ala-Glu-Ala-Tyr-Pro)] |  | 0
6 | IKEKYP [Peptide 1 (Ile-Lys-Glu-Lys-Tyr-Pro)] |  | 78
7 | IAEKYP [Peptide 4 (Ile-Ala-Glu-Lys-Tyr-Pro)] |  | 89
8 | KHIKPS [Peptide 7 (Lys-His-Ile-Lys-Pro-Ser)] |  | 56
9 | IKEAYP [Peptide 3 (Ile-Lys-Glu-Ala-Tyr-Pro)] |  | 100
10 | IKAKYP [Peptide 2 (Ile-Lys-Ala-Lys-Tyr-Pro)] |  | 100
11 | KEK [Peptide 10 (Lys-Glu-Lys)] |  | 0
